The results in this text go back to PMC3120127.

What all share (experiment): split reporter
Assay [1] concerns the target N-FLUC-PFE1350c (amino acids 9-135) (P. falciparum).
The target in assay [2] is N-FLUC-PfMyb2 fragment #13 (P. falciparum).
Assay [3] concerns the target N-FLUC negative control (firefly).

Turning to “PFL1705w-C-FLUC (amino acids 95-213) (domain or fragment)”, in assay [1], the fold luciferase signal over N-FLUC-PFE1350c plus the C-FLUC negative control is less than 2.3 fold.

For “PFC0365w-C-FLUC (amino acids 45-205) (domain or fragment)”, the fold luciferase signal over N-FLUC-PFE1350c plus the C-FLUC negative control in assay [1] was less than 2.3 fold. Moreover, in assay [2], the fold luciferase signal over the N-FLUC fusion plus the C-FLUC negative control is 36 fold.

Regarding “PFC0255c-C-FLUC (amino acids 4-137) (domain or fragment)”, the fold luciferase signal over N-FLUC-PFE1350c plus the C-FLUC negative control in assay [3] was less than 2.3 fold. Further, the fold luciferase signal over the N-FLUC fusion plus the C-FLUC negative control in assay [1] was more than 600 fold.
